Here are results for six substances from patent US20160238596.

In this series the test system is Indicator molecule containing the cleavable sequence GPQGIFGQ with a terminal biotin group connected via a polyethylene glycol spacer/linker (intact).

Active MMP-9 (Alere San Diego), sequence (chain, as listed by the source): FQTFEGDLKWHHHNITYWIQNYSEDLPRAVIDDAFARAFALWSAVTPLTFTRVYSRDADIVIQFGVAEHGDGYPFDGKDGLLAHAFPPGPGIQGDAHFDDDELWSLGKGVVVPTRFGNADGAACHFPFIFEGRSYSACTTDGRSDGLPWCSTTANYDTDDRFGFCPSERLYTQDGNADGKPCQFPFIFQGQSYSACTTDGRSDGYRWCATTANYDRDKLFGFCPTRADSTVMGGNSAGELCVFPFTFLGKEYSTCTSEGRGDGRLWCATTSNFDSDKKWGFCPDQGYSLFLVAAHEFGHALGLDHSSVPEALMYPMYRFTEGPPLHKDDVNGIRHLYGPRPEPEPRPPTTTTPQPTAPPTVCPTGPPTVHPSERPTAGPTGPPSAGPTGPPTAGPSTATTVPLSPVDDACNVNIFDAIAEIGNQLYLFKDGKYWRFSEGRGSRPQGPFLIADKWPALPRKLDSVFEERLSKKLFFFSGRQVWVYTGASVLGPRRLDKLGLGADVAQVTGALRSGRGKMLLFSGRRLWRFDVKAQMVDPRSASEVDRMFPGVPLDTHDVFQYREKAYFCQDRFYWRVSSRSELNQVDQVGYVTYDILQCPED
MMP 3 (Enzo), sequence (chain, as listed by the source): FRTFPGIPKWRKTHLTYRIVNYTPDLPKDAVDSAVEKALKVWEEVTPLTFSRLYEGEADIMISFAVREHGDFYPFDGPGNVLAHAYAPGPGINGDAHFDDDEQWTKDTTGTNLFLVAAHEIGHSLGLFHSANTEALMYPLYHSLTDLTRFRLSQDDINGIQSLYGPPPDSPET
MMP 8 (Enzo), sequence (chain, as listed by the source): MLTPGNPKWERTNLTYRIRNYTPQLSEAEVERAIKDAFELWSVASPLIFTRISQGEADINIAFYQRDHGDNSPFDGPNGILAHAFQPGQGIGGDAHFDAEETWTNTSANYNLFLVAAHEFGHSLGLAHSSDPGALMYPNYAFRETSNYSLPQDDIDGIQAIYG
MMP 9 (Enzo), sequence (chain, as listed by the source): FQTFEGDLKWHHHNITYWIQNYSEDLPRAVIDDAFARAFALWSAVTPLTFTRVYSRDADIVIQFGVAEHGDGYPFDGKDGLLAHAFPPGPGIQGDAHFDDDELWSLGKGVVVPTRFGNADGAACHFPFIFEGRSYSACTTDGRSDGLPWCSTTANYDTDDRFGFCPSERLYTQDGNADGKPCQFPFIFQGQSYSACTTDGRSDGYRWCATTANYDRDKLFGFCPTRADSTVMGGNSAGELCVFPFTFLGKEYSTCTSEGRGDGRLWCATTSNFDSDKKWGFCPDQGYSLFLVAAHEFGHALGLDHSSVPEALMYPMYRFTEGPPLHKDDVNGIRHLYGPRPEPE
MMP 10 (Enzo), sequence (chain, as listed by the source): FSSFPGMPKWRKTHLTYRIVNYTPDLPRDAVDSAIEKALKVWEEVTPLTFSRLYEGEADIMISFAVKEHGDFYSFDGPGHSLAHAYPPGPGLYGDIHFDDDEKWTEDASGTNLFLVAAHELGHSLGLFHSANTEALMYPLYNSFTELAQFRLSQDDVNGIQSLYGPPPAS
MMP 2 (Enzo), sequence (chain, as listed by the source): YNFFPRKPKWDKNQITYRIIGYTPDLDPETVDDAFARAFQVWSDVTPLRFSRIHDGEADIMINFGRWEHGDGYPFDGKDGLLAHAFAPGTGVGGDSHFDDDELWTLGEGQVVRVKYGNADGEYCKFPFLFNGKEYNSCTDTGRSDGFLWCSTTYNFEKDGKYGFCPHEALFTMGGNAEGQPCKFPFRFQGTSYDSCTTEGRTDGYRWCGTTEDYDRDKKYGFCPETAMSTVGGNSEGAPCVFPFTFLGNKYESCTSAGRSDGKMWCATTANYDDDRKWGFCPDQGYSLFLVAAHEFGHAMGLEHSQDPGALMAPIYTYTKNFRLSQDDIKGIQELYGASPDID

Consider Active MMP-9 (Alere San Diego), for which the OD405 (streptavidin plate ELISA with CF1522-AP) at 0.39 ng/ml MMP9 turned out to be 0.14 OD405, the OD405 (streptavidin plate ELISA with CF1522-AP) at 0.78 ng/ml MMP9 was found to be 0.14 OD405, the OD405 (streptavidin plate ELISA with CF1522-AP) at 1.56 ng/ml MMP9 came to 0.14 OD405 and the OD405 (streptavidin plate ELISA with CF1522-AP) at 3.13 ng/ml MMP9 was found to be 0.13 OD405. The substance further had an OD405 (streptavidin plate ELISA with CF1522-AP) at 6.25 ng/ml MMP9 of 0.17 OD405, an OD405 (streptavidin plate ELISA with CF1522-AP) at 12.50 ng/ml MMP9 of 0.18 OD405, an OD405 (streptavidin plate ELISA with CF1522-AP) at 25.00 ng/ml MMP9 of 0.27 OD405 and an OD405 (streptavidin plate ELISA with CF1522-AP) at 50.00 ng/ml MMP9 of 0.5 OD405. For the same substance, the “detectable limit for MMP-9 (lateral flow, sample volume of 75 µl)” value was “approximately 4 ng/ml”; the reader value (lateral flow, CF1522 gold) at 0.9765625 ng/ml MMP9 was found to be 338 reader units; the reader value (lateral flow, CF1522 gold) at 1.953125 ng/ml MMP9 came to 343 reader units; the reader value (lateral flow, CF1522 gold) at 3.90625 ng/ml MMP9 came to 413 reader units. For the same substance, the reader value (lateral flow, CF1522 gold) at 7.8125 ng/ml MMP9 turned out to be 524 reader units; the reader value (lateral flow, CF1522 gold) at 15.625 ng/ml MMP9 was determined as 882 reader units; the reader value (lateral flow, CF1522 gold) at 31.25 ng/ml MMP9 is 2030 reader units; the reader value (lateral flow, CF1522 gold) at 62.5 ng/ml MMP9 was found to be 3830 reader units. This substance also came in with a reader value (lateral flow, CF1522 gold) at 125 ng/ml MMP9 of 5580 reader units; a reader value (lateral flow, CF1522 gold) at 250 ng/ml MMP9 of 6220 reader units; a reader value (lateral flow, CF1522 gold) at 500 ng/ml MMP9 of 6730 reader units; a reader value (lateral flow, CF1522 gold) at 1000 ng/ml MMP9 of 6770 reader units. Besides, the “sensitivity of the MMP9 standard curves (ELISA and Lateral Flow)” value is “sensitivity down to 4 ng/ml”.
Turning to MMP 2 (Enzo), the Reader value (lateral flow, CF1522 gold) at 0.5 µg/ml MMP turned out to be 1610 reader units.
Same read-out and setting: in the case of MMP 3 (Enzo) it was 336 reader units; in that of MMP 8 (Enzo), 1140 reader units.
Same read-out and setting: in the case of MMP 9 (Enzo) it was 3840 reader units; in that of MMP 10 (Enzo), 444 reader units.
